Experiment: soluble on expression in E. coli; label from the status in PepcDB or PDB records

Row | Sequence | soluble on expression in E. coli
1 | MKGRLLDAVPLSSLTGVGAALSNKLAKINLHTVQDLLLHLPLRYEDRTHLYPIGELLPGVYATVEGEVLNCNISFGGRRMMTCQISDGSGILTMRFFNFSAAMKNSLAAGRRVLAYGEAKRGKYGAEMIHPEYRVQGDLSTPELQETLTPVYPTTEGVKQATLRKLTDQALDLLDTCAIEELLPPELSQGMMTLPEALRTLHRPPPTLQLSDLETGQHPAQRRLILEELLAHNLSMLALRAGAQRFHAQPLSANDTLKNKLLAALPFKPTGAQARVVAEIERDMALDVPMMRLVQGDVGSGKTLVAALAALRAIAHGKQVALMAPTELLAEQHANNFRNWFAPLGIEVGWLAGKQKGKARLAQQEAIASGQVQMIVGTHAIFQEQVQFNGLALVIIDEQHRFGVHQRLALWEKGQQQGFHPHQLIMTATPIPRTLAMTAYADLDTSVIDELPPGRTPVTTVAIPDTRRTDIIDRVHHACITEGRQAYWVCTLIEESELLEAQAAEATWEELKLALPELNVGLVHGRMKPAEKQAVMASFKQGELHLLVATTVIEVGVDVPNASLMIIENPERLGLAQLHQLRGRVGRGAVASHCVLLYKTPLSKTAQIRLQVLRDSNDGFVIAQKDLEIRGPGELLGTRQTGNAEFKVADLLRDQAMIPEVQRLARHIHERYPQQAKALIERWMPETERYSNA | soluble
2 | MLQINRHILDNGLRLVHAQDTSTQMVALNILYNVGARDENPEHTGFAHLFEHLMFGGSVNIPDYDAPLQLAGGENNAWTNNDITNYYLTVPRQNVETGFWLESDRMLSLDFSERSLEVQRGVVMEEFKQRCLNQPYGDVGHLLRPLAYRVHPYQWPTIGKELSHIANATLEEVKDFFFRFYAPNNAVLAVTGNISFEEALHLTEKWFGPIPRREVPLRQLPPEPVQTEERRLVVERNVPLDSLFMAYHMCDRADSDYYAFDILSDILSNGRSSRLNQHLVQEKQLFSSIDAYISGTLDAGLFHISGKPAAGVSLEEAEAAVREELNELQSALIQEQELEKVKNKFESTQIFGNINYLNVATNLAWFELNGRAEDMEKEVERYRAVTADRLNAVAQTAFREENGVVLYYKSSRGEKDETYI | not soluble
3 | MSDLYRNKKILAPMVRAGRTPLRLLCLKYGADLCYTEEIVDKKLIEATRVVNEALGTIDYRNGDDIILRLAPEEKGRCILQIGTNSGEKAAKIAQIVGDDVAGIDVNMGCPKPFSIHCGMGAALLTQTEKIVDILTSLKSAAKVPVTCKIRVLDDPEDTLKLVQEIEKCRVSALGVHGRRRDERQPDKCRIDEIRDVAQAVQSIPVISNGLSDEIEQYSDFEKYQLLTETSSTMIARKALSTPSIFRREGCLDKYEDIRNFLELACQYDESYTMTKYVVQRILGADQEYDPRGKATVAAGSVLQICKAFGMEDVYDKWRDERKKKQSKKRARVDDDGVYNIEVSFPLKRLKNSVGFSPTPKMVLHDYCVETKIPKATYEVVKRDDKRFVATACIGDKKYRSGIGQPNLRMAEQVAALAALHGMNIRNLLVGNWEEE | not soluble
4 | MGSDKIHHHHHHMSKLVTIYGGSGFVGRYIARRMAKEGWRVRVAVRRPNEAMHVKPYGAVGQVEPVLCNLRDDNSVAQTMRGADAVVNCVGVLNELGRNSFDAVQAEGAERIARIAAEQGVARMVHVSAIGADGDSDSAYSRSKALGEAGVLRHMPDAMILRPSVIFGTEDQFFNRFAGMTRFGPFLPVVGAETRFQPVYVDDVARAAVKGVLGQAPGGVYELGGPDVETFRALMQRMLGVIHRKRIIIALPFFAARIMAGMLDVAKFVSFQLFPNNILTRDQLKNLRRDNVVSEGAKGFADLGIAPEPMDTVLPAYLWKFRPNGQYDEIQASAKNLRA | not soluble
5 | MGSDKIHHHHHHMKPVVVMTQTNDMQSDLVSIIHKPFIDIKPLNFDIHLLNQRYDWLIFSSKNAVKFFYKYLKGINVDNIAVIGSKTAQYCESLGIRVDFMPNDFSQEGFLKSFNQTNQKILLPSSELARPLLLAALSKDNEVVKIDLYTSVPNKQNIQDVKEMIEHQQIDALTFSSSSAVRYYFNEGFVPKFKSYFAIGEQTARTIKTYQQPVTIAEIQTLESLIEKILESRG | not soluble
6 | MSLDNDTVKVGDLVQINLPGEASLNQGFQVDRRGRINLPEIGPVFVAGYNEQQLQDVIIETLKTVYRDVNNARVFIKQQQLLVSVQGYVVKPGEYTLPAGSNIQMFVYEAGGLRAGAQLDKMIVKRGDQNIEFDYKRFLDTGDNEGHHHHHH | soluble
7 | MGSDKIHHHHHHNGDEKIDSGMVQQDGEVLQLNVRVGDFAINDVSSIRATDSGSTGTFENGDRIGIIVLDADNNVLSDNIPYRYDGNIWSFDSNNDEGKTTIYYDNKATVYLAYFPYSKEVDNVINIDDLKGKFLPQGDQRSKDAYRASDLLVWSDTSGRPLKKLDIVFEHAYSLLSLSPSIKCKINGRRDFTYVPSSISDVSFNVGTEPLFPYQMNDGSYQIIISPKRAKVRWLYEYNKEMYSGAMPDTDLSANTCYTFTPVLKDIGDYTLDKAQMGDFYCKDESNNGYLIPGDVTALSADMNCLGIVLKSGKDSEGEWVDYCKYKQKYGITEMHTVHGYVLALYDANGGNACTWGLWSLTDINRGEPSTGFYGYKNTQGIISFAENENRTLKNGFPPVYWVTDYEYSHPAPANSSGWFLPSLGQCWYWMYNKAYLLSAVNKATGDNDYGWKLGYWSSSEDDYDPFLNAYYADTYVGAMDWDYKNSKHCVRACLAF | not soluble
8 | MSNSNKLIAEKNGSRYGRMIHPWLRKKQDMLADTPSRREGMTYEEELSKRQQGGVFIFDIAMQLTHGKGEHGLSGVAATLFNRFFNVHSLKRCDFRDVAAACVFLAGKNEDAPKKLKYVVTQLWQFKYPHNKQFQSEQHFLDQCNVVTLIEDVLLKTISFDINVDLPHQYVLKLMRDVEKGRNVYKDMVKTAYYMATDVLIITDWSVRYSCASIATACVNIAAFFHNINMDDIVPFELSDRWYRLEDQSMTREEVEAMTKEFLDIFSRNPQFHIGSLKKIDPLGKVKIVGMPPQVSSTVTPSGSSSNLKKIDLESYKGRPKPLSNSSDSPSTRPSFLPDVKNQKVVEQELMEQRMKEAAQQKIHRNGHRPSSSSHPLHHHSTSSSASNNSNHQNRSSSGLSAHQHQKPYNEDSRSAKRSMMYEETNSSKKPRIDYKMSFVASSSTTIATMHNDHFSQTTHQQNISTYARGVNEMMLNQVAPPPLMSVSAQPSTYQKMCMEYQRNPADSRHTMSSTQQISPPDEPSPPVSQILLPPPPPPPILPPRLDEMEEGELV | not soluble
9 | MGSDKIHHHHHHMETVYFKTLLAVVETGSFSRAAERLCITQSAVSQRIKLLEGRYGYTLIDRAGNFLVPTAAGELVIQKARVIIEHELALLGALKLLPAKTVISFCCSPCFGTVFLPALVRDFVLRNSEQIDFRCVLGSSQGAVRGLRDTDFNIIVIEHCTPLDLSPYDVISLPNDEIIFVSNPATGLDVPEPDLSQLLNLPVIMRKEGCSGTEQLAANLARFGKVLEDFRSVTGLDDPRLIVQTVKTEPYLAFVPKSLVLKELAEGSLRAHTVKGFSHARFRSLVTAPKRYSDPCRSNFIKAVMETVCHISAVSMPGDGPGSRWHKKRPSGRRAPLNSAVTNNAAI | not soluble
10 | MKKLSGIIVLLLAGAALYLALKTSPIDPLAWDAPAAPQMTGVLEPNDTLMKAELLGQGQLHGPEDTAVDSQGRVYAGLADGRVVRLDASGKVETFVDTGGRPLGMDFDAAGNLILADAWKGLLRIDPQGKVETLATEADSVPFAFTDDLDIASDGRIYFSDASSKFHQPDYILDLLEARPHGRLLRYDPSTGKTEVLLKDLYFANGVALSANEDFVLVNETYRYRITRYWLKGEKAGQHEVFIDNLPGLPDNLQGDRKGTFWVALPTPRKADADFLHRHPWLKAQLAKLPRMFLPKPTAYGLVIAIDEQGRIVRSLHDTSGHHLRMITSAKPVGDQLYFGSLENDRIGRLAIPLEHHHHHH | soluble
11 | MDRGVAQVASAPALGAGGRWFKSSRPDHFFIEVDKALLKEVKDMPIYRYVCEECGYETTVMHGINESPEVICEECGAKMKRTIGRVGIIFKGSGFYITDSRKSEKKKEAASASSEKKD | not soluble
12 | MGHHHHHHSHMEKSAPSIILNHWCVTWQGHHFLCRNLSNIKILNRRNGYTTLDLPLTLGDLTQYRLAHGLSENLMALSPYSWTIPFLVSSSETPGIELLPKVINDFGTPLSLAIKTNLPSIPAHQLLFYIIFLRPSPLTSMSCYARPLSLASTPSTNGLCQSVSVLDNKPGLLITTPLHRDPASGKYTSNVQSPTTFNLFRVLYIKLSGEEGMVSQKVKHLTIDKDSLQEGFLQLCLNMCGVSYETLQCEILLELVQGPTNFIFPAAFPPPVSLPHRNCIELTCDTERCLKPGDVMKLKHRLLYELGQRGDTPQNAFLIVGAHSPETVWISPSLWLPGQPLYINIINLSHKPLLLSRHSILALAIPISYTRAPASAHEATDTTICYSGNSRVLTCGAAHVLEAHFKHPPITSRAITDGGESPMEWQTL | not soluble
13 | SMSNANPFFSQSLAERDASVRGAILKELERQQSQVELIASENIVSRAVLDAQGSVLTNKYAEGYPGKRYYGGCEFADEVEALAIERVKRLFNAGHANVQPHSGAQANGAVMLALAKPGDTVLGMSLDAGGHLTHGAKPALSGKWFNALQYGVSRDTMLIDYDQVEALAQQHKPSLIIAGFSAYPRKLDFARFRAIADSVGAKLMVDMAHIAGVIAAGRHANPVEHAHVVTSTTHKTLRGPRGGFVLTNDEEIAKKINSAVFPGLQGGPLMHVIAGKAVAFGEALTDDFKTYIDRVLANAQALGDVLKAGGVDLVTGGTDNHLLLVDLRPKGLKGAQVEQALERAGITCNKNGIPFDPEKPTITSGIRLGTPAGTTRGFGAAEFREVGRLILEVFEALRTNPEGDHATEQRVRREIFALCERFPIY | soluble
14 | MSLTITVNGVEISEDMIASQLDHYADTPSPRDTAIQQLILHTLLIQQAKSEGLDVADEQQAIQTLLDSKLQVPAIDEASCREFYDRYPERFSAGESAVASHILLPKGEGLEASLIKAKAEGILEEAQANPSRFAALAQEHSTCPSGKQGGSLGQFGRGQMVPEFEQAVFSTEAGQITPHLVETQFGYHIIQVEQRAEGGKIGFDEVKERLQHYLADLAVNQAMHEYLNMLVSAAQISGYQMTAEGHHHHHH | soluble
15 | SNAMKLMDVHVLFSGGKDSSLSAVILKKLGYNPHLITINFGVIPSYKLAEETAKILGFKHKVITLDRKIVEKAADMIIEHKYPGPAIQYVHKTVLEILADEYSILADGTRRDDRVPKLSYSEIQSLEMRKNIQYITPLMGFGYKTLRHLASEFFILEEIKSGTKLSSDYEAEIRHILKERGESPEKYFPEHKQTRVVGLKKEI | soluble
16 | KVWDRAVDFLAANESRVRTETRRIGGADFLVWRWIQPSASCDKILVIPSKVWQGQAFHLDRRNSPPNSLTPCLKIRNMFDPVMEIGDQWHLAIQEAILEKCSDNDGIVHIAVDKNSREGCVYVKCLSPEYAGKAFKALHGSWFDGKLVTVKYLRLDRYHHRFPQALTSNTPLKPSNKHMNSMSHLRLRTGLTNSQGSS | soluble
17 | GMSEIDANYRALAQQVADKVAGRVIALDRLPESLLTAYRSLCDELLADRDGRFTRAWDQLPDSASSLFERCVFHGFYLANAWIQLSIVARDISELQDTDEAIAEQEYSGLYVRVAEAALKESVKKLKKARTDRSMYNSMREVMGI | soluble
18 | MGSDKIHHHHHHMSHVSYAEPPAQGWDIHCHTVFSDGTETPRTLVEQARKLGLHGVAIADHDTTAGWDEATEASEEIGLPLLLGTEITAVDEDVSVHMLAFQYDPSNEHISSMFANTRAARLRRTKRMVERLSQDFPITWDDVLAQVKEGERTTIGRPHIADALVAAGVYETRSDAFADAVSAKSKYYIPTPSPSTHEVIAAVKGAGGVVVAAHAGDPQRNRRLLSDEQLDAMIADGLDGLEVWHRGNPPEQRERLLTIAARHDLLVTGGSDWHGKGKPNGLGENLTDDDTVREILCRGVDLIGRVGSSHAA | not soluble
